In patent US20130231261:

Biological target: T1, RNase H (UniProt P0A7Y4)
T1 sequence: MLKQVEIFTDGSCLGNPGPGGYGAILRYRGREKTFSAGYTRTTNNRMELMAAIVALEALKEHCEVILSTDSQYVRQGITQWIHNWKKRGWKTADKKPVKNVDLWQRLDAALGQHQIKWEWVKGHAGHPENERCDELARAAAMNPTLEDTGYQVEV
Assay: flow

Row | Sequence | binding (fluorescence units) (no RNA, equivalent to bead background of 44 units) | binding (fluorescence units) (bead fluorescence 4x over no-RNA control, released to 45 units on adding MgCl2)
1 | AAGCCAGCTGCTTCCATTGGTGGGTCGTTTTTGCTGTCACCAGCAACATTGCCTCGTCTA [EF1a capture oligo without RNA] | 47 | 
2 | AAGCCAGCTGCTTCCATTGGTGGGTCGTTTTTGCTGTCACCAGCAACATTGCCTCGTCTA [EF1a capture oligo:EF1a RNA hybrid] |  | 196
